Measured values as given in paper PMC11088064 (BMC Immunology, 2024).

Legend:
hPD-1 on CHO cells [1] = biological target: T1, hPD-1 on CHO cells (human, UniProt Q15116); assay: cell-based or functional assay
[2] = biological target: T2, hPD-1 L128A on HEK293T cells (Homo sapiens, UniProt Q15116, L128A); assay: flow cytometry on cells; shotgun mutagenesis alanine scan (Integral Molecular): hPD-1 wild type or mutants transiently expressed in HEK293 T cells, incubated with antibody, Alexa Fluor 488 secondary antibody; non-blocking control anti-PD-1 as reference; details: one partner purified
T2 construct: programmed cell death 1 (PD-1), human, alanine mutant of the shotgun mutagenesis library; source: HEK293 T cells, transiently transfected, on cells
T2 sequence (Q15116 25-288 L128A): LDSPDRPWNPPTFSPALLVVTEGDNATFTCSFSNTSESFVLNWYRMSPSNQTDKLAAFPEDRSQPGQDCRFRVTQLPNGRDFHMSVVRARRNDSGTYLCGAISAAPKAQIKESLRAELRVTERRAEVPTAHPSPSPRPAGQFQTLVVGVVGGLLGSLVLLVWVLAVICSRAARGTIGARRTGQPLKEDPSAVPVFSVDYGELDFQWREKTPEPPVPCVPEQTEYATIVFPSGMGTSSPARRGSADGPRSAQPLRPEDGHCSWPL

[3] = biological target: T3, hPD-1 P130A on HEK293T cells (Homo sapiens, UniProt Q15116, P130A); assay: as above; details: one partner purified
T3 construct: programmed cell death 1 (PD-1), human, alanine mutant of the shotgun mutagenesis library; source: HEK293 T cells, transiently transfected, on cells
T3 sequence (Q15116 25-288 P130A): as the sequence (Q15116 25-288 L128A) above, with A104L, P106A counted along it

[4] = biological target: T4, hPD-1 I126A on HEK293T cells (Homo sapiens, UniProt Q15116, I126A); assay: as above; details: one partner purified
T4 construct: programmed cell death 1 (PD-1), human, alanine mutant of the shotgun mutagenesis library; source: HEK293 T cells, transiently transfected, on cells
T4 sequence (Q15116 25-288 I126A): as the sequence (Q15116 25-288 L128A) above, with I102A, A104L counted along it

hPD-1 on CHO cells [5] = biological target: T1, hPD-1 on CHO cells; assay: flow cytometry on cells; competition: PD-1-expressing CHO-S cells with serial dilutions of anti-PD-1 at 4 °C for 15 min, then human Fc (IgG1)-labeled PD-L1 at 4 °C for 1 h in PBS/2% BSA; bound PD-L1 detected with PE anti-human IgG1/3; details: one partner purified
mPD-1 on CHO cells = biological target: T5, mPD-1 on CHO cells (mouse, UniProt Q02242); assay: as above; details: one partner purified
T5 construct: also called mPD-1-expressing CHO cells; cellular mPD-1; source: CHO cells, stably transfected (pCMV3 vector), on cells
T5 sequence (Q02242 25-288): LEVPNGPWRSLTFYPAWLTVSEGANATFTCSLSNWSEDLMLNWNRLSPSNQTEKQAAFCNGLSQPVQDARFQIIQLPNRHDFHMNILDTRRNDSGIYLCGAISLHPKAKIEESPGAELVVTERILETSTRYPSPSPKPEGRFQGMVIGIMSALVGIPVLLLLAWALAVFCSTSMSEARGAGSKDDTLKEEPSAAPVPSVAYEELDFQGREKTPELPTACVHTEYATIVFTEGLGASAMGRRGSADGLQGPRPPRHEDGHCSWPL

T1 sequence (Q15116 25-288): as the sequence (Q15116 25-288 L128A) above, with A104L counted along it

B1: GNUV201 (antibody, V domains shown)
VH: QVQLVQSGAEVKKPGASVKVSCKASGYTFTGYWMHWVRQAPGQGLEWIGMIHPNSDTTTYNEKFKNRVTMTRDTSISTAYMELSRLRSDDTAVYYCAGTDQAAWFAFWGQGTTVTVSS
VL: DIVMTQTPLSLSVTPGQPASISCRSSQNIVHSQGDTYLEWYLQKPGQSPQLLIYKVSKRFSGVPDRFSGSGSGTDFTLKISRVEAEDVGVYYCFQGSHVPWTFGGGTKVEIK
notes: humanized VH: CDRs of mouse clone 1G1 grafted into human IgG framework, with select point mutations; human IgG4 heavy chain constant region, hinge-stabilised S228P variant; IgG4 (S228P); the data statement says that datasets are available on request; also called humanized GNUV201; anti-PD-1; copies: 2 + 2
reporter assay: luciferase (NFAT-RE) in Jurkat T cells expressing hPD-1 with human PD-L1 aAPC/CHO-K1 cells; IC50 of blocking hPD-1/hPD-L1 (hPD-1 on CHO cells [1]): 6.3 nM | percent of WT PD-1 control binding [2]: 38.5% | percent of WT PD-1 control binding [3]: 19.5% | percent of WT PD-1 control binding [4]: 46.6% | IC50 (hPD-1 on CHO cells [5]): 9.9 nM | IC50 (mPD-1 on CHO cells): 6.7 nM
